# B1: Multidrug resistance associated protein (Homo sapiens), Q96QA9 (protein)
# chain: MDALCGSGELGSKFWDSNLSVHTENPDLTPCFQNSLLAWVPCIYLWVALPCYLLYLRHHCRGYIILSHLSKLKMVLGVLLWCVSWADLFYSFHGLVHGRAPAPVFFVTPLVVGVTMLLATLLIQYERLQGVQSSGVLIIFWFLCVVCAIVPFRSKILLAKAEGEISDPFRFTTFYIHFALVLSALILACFREKPPFFSAKNVDPNPYPETSAGFLSRLFFWWFTKMAIYGYRHPLEEKDLWSLKEEDRSQMVVQQLLEAWRKQEKQTARHKASAAPGKNASGEDEVLLGARPRPRKPSFLKALLATFGSSFLISACFKLIQDLLSFINPQLLSILIRFISNPMAPSWWGFLVAGLMFLCSMMQSLILQHYYHYIFVTGVKFRTGIMGVIYRKALVITNSVKRASTVGEIVNLMSVDAQRFMDLAPFLNLLWSAPLQIILAIYFLWQNLGPSVLAGVAFMVLLIPLNGAVAVKMRAFQVKQMKLKDSRIKLMSEILNGIKVLKLYAWEPSFLKQVEGIRQGELQLLRTAAYLHTTTTFTWMCSPFLVTLITLWVYVYVDPNNVLDAEKAFVSVSLFNILRLPLNMLPQLISNLTQASVSLKRIQQFLSQEELDPQSVERKTISPGYAITIHSGTFTWAQDLPPTLHSLDIQVPKGALVAVVGPVGCGKSSLVSALLGEMEKLEGKVHMKGSVAYVPQQAWIQNCTLQENVLFGKALNPKRYQQTLEACALLADLEMLPGGDQTEIGEKGINLSGGQRQRVSLARAVYSDADIFLLDDPLSAVDSHVAKHIFDHVIGPEGVLAGKTRVLVTHGISFLPQTDFIIVLADGQVSEMGPYPALLQRNGSFANFLCNYAPDEDQGHLEDSWTALEGAEDKEALLIEDTLSNHTDLTDNDPVTYVVQKQFMRQLSALSSDGEGQGRPVPRRHLGPSEKVQVTEAKADGALTQEEKAAIGTVELSVFWDYAKAVGLCTTLAICLLYVGQSAAAIGANVWLSAWTNDAMADSRQNNTSLRLGVYAALGILQGFLVMLAAMAMAAGGIQAARVLHQALLHNKIRSPQSFFDTTPSGRILNCFSKDIYVVDEVLAPVILMLLNSFFNAISTLVVIMASTPLFTVVILPLAVLYTLVQRFYAATSRQLKRLESVSRSPIYSHFSETVTGASVIRAYNRSRDFEIISDTKVDANQRSCYPYIISNRWLSIGVEFVGNCVVLFAALFAVIGRSSLNPGLVGLSVSYSLQVTFALNWMIRMMSDLESNIVAVERVKEYSKTETEAPWVVEGSRPPEGWPPRGEVEFRNYSVRYRPGLDLVLRDLSLHVHGGEKVGIVGRTGAGKSSMTLCLFRILEAAKGEIRIDGLNVADIGDPILFSGTLRMNLDPFGSYSEEDIWWALELSHLHTFVSSQPAGLDFQCSEGGENLSVGQRQLVCLARALLRKSRILVLDEATAAIDLETDNLIQATIRTQFDTCTVLTIAHRLNTIMDYTRVLVLDKGVVAEFDSPANLIAARGIFYGMARDAGLA
# B2: Multidrug resistance-associated protein 1 (Homo sapiens) (protein)
# chain: MALRGFCSADGSDPLWDWNVTWNTSNPDFTKCFQNTVLVWVPCFYLWACFPFYFLYLSRHDRGYIQMTPLNKTKTALGFLLWIVCWADLFYSFWERSRGIFLAPVFLVSPTLLGITMLLATFLIQLERRKGVQSSGIMLTFWLVALVCALAILRSKIMTALKEDAQVDLFRDITFYVYFSLLLIQLVLSCFSDRSPLFSETIHDPNPCPESSASFLSRITFWWITGLIVRGYRQPLEGSDLWSLNKEDTSEQVVPVLVKNWKKECAKTRKQPVKVVYSSKDPAQPKESSKVDANEEVEALIVKSPQKEWNPSLFKVLYKTFGPYFLMSFFFKAIHDLMMFSGPQILKLLIKFVNDTKAPDWQGYFYTVLLFVTACLQTLVLHQYFHICFVSGMRIKTAVIGAVYRKALVITNSARKSSTVGEIVNLMSVDAQRFMDLATYINMIWSAPLQVILALYLLWLNLGPSVLAGVAVMVLMVPVNAVMAMKTKTYQVAHMKSKDNRIKLMNEILNGIKVLKLYAWELAFKDKVLAIRQEELKVLKKSAYLSAVGTFTWVCTPFLVALCTFAVYVTIDENNILDAQTAFVSLALFNILRFPLNILPMVISSIVQASVSLKRLRIFLSHEELEPDSIERRPVKDGGGTNSITVRNATFTWARSDPPTLNGITFSIPEGALVAVVGQVGCGKSSLLSALLAEMDKVEGHVAIKGSVAYVPQQAWIQNDSLRENILFGCQLEEPYYRSVIQACALLPDLEILPSGDRTEIGEKGVNLSGGQKQRVSLARAVYSNADIYLFDDPLSAVDAHVGKHIFENVIGPKGMLKNKTRILVTHSMSYLPQVDVIIVMSGGKISEMGSYQELLARDGAFAEFLRTYASTEQEQDAEENGVTGVSGPGKEAKQMENGMLVTDSAGKQLQRQLSSSSSYSGDISRHHNSTAELQKAEAKKEETWKLMEADKAQTGQVKLSVYWDYMKAIGLFISFLSIFLFMCNHVSALASNYWLSLWTDDPIVNGTQEHTKVRLSVYGALGISQGIAVFGYSMAVSIGGILASRCLHVDLLHSILRSPMSFFERTPSGNLVNRFSKELDTVDSMIPEVIKMFMGSLFNVIGACIVILLATPIAAIIIPPLGLIYFFVQRFYVASSRQLKRLESVSRSPVYSHFNETLLGVSVIRAFEEQERFIHQSDLKVDENQKAYYPSIVANRWLAVRLECVGNCIVLFAALFAVISRHSLSAGLVGLSVSYSLQVTTYLNWLVRMSSEMETNIVAVERLKEYSETEKEAPWQIQETAPPSSWPQVGRVEFRNYCLRYREDLDFVLRHINVTINGGEKVGIVGRTGAGKSSLTLGLFRINESAEGEIIIDGINIAKIGLHDLRFKITIIPQDPVLFSGSLRMNLDPFSQYSDEEVWTSLELAHLKDFVSALPDKLDHECAEGGENLSVGQRQLVCLARALLRKTKILVLDEATAAVDLETDDLIQSTIRTQFEDCTVLTIAHRLNTIMDYTRVIVLDKGEIQEYGAPSDLLQQRGLFYSMAKDAGLV
# How the values were obtained:
# Assay type in all cases: functional, cell membranes
# [1] = substrate: CN(Cc1cnc2nc(N)nc(N)c2n1)c1ccc(C(=O)N[C@@H](CCC(=O)O)C(=O)O)cc1; test: (§1) TP_TRANSPORTER: uptake in membrane vesicles from MRP3-expressing HEK293 cells; details: Membrane vesicle
# [2] = substrate: Nc1nc(=O)c2c([nH]1)NCC(CNc1ccc(C(=O)N[C@@H](CCC(=O)O)C(=O)O)cc1)N2C=O; test: as §1; details: Membrane vesicle
# [3] = substrate: Nc1nc(=O)c2nc(CNc3ccc(C(=O)N[C@@H](CCC(=O)O)C(=O)O)cc3)cnc2[nH]1; test: as §1; details: Membrane vesicle
# [4] = substrate: CN(Cc1cnc2nc(N)nc(N)c2n1)c1ccc(C(=O)N[C@@H](CCC(=O)O)C(=O)O)cc1; test: TP_TRANSPORTER: uptake in membrane vesicle from MRP1-expressing NIH3T3 cells
Protein,Km [1] [µM],Km [2] [µM],Km [3] [µM],Km [4] [µM]
B1,620,1740,1960,–
B2,–,–,–,2150

# — ChEMBL document CHEMBL2073963, “Transport of methotrexate (MTX) and folates by multidrug resistance protein (MRP) 3 and MRP1: effect of polyglutamylation on MTX transport” (Cancer Res, 2001)
